B1: TPR t1 (parent)
chain: GACCAAUCUGCCCUCAGAGCUCGAGAACAUCUUCGGAUGCAGAGGAGGCAGGCUUCGGUGGCGCGAUAGCGCCAACGUCCUCAACCUCCAAUGCAUCCCACCACAUGAUGAUGCCUGAAGAGCCUUGGUUUUUUG

Variants of: B1
Experiment: polymerase ribozyme fitness, log enrichment relative to wild type (log ratio); higher = more active; in vitro selection for triplet polymerase activity
How it was run: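 The heterodimeric triplet polymerase ribozyme's subunits were each mutagenized into PCR-built libraries and transcribed. Every library was selected once, in triplicate, by annealing with a biotinylated primer, the partner subunit and triplets, incubating frozen at −7 °C, gel-excising extended constructs, capturing on streptavidin beads and running RT-PCR. Input and output libraries were Illumina-sequenced, with genotypes kept only at ≥10 input reads and ≥1 read per output. Fitness, from inverse-variance-weighted replicate averages, is the base-2 logarithm of genotype enrichment over wild-type enrichment.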

In order of rising “polymerase ribozyme fitness (log ratio)” value:
1. A2G C8G A43G G69C C98A C123A  -7.53
2. C8G A24C U38G G44A G63A C88U A95C G117U  -7.47
3. C4A C12A C13A A18U G44A G51A U59A U87A G110C G120A U126G  -7.29
4. A50U G65A U78G G120A U126A U129G U130A  -7.26
5. C56U A68U C70U U92C C104U C124U  -7.15
6. C34G C72G U96C A103U C124A  -7.14
7. A43C C85G A90G C98A  -7.04
8. C8G A27U G36A G42U C76A U96A U109A U116G  -6.96
9. G25C A111U  -6.92
10. G58C C97A A103U G120C  -6.84
11. A41U G45U C53G U55G G63U  -6.72
12. G19U C34A G69C C114U  -6.59
13. A16C U109A U116G  -6.51
14. C20A G35U A100U C114A C115U U130C  -6.44
15. U7C G10A U14A C53G C56G A84U G117U  -6.36
16. G63A G69C  -6.1
17. G19A G23U U92A G120U C124U  -6.05
18. A111U G113A U130G  -5.85
19. G35A C56U C72U G113A U133A  -5.8
20. G10U C11G G52U U109C C114U  -5.43
21. G61U C62A U112A G128A U133A  -5.42
22. G35C G61C U81G G117C  -5.32
23. G93A G110C  -5.32
24. A26G U32C G60A C64U  -5.28
25. C8A A37C U78G A100C C101A U106G  -5.27
26. C12U A26U G39C G110A  -5.25
27. A37C C40A G52A G61C A111C G127C  -5.24
28. G61U C82G A100C G113U  -5.11
29. A2C G69A C101U C104U G113A G127C U129C  -5.09
30. C4U C11A C76U C82G G110U  -5.02
31. C11U G36A C101U  -4.98
32. C20A C49A G63A U81A C104U G120C U133A G135U  -4.91
33. C62U A103U  -4.85
34. C4A C56G A84G C89U C115A  -4.85
35. C20A C56A C76A C82U  -4.8
36. G10U G63U G113C  -4.79
37. G63C C64U A118G U133G  -4.77
38. C31U G63A C85U C124G  -4.75
39. G19C C79A C89A  -4.61
40. C11G A50C A75U C97A C102U  -4.52
41. G61U U106G A108U  -4.45
42. C3G A5C G48U U54C U92G  -4.45
43. A18C U21A C72G G93C  -4.4
44. G47U C70A  -4.28
45. A37U C49A C86U G117C  -4.27
46. G44A C70G  -4.21
47. C15G G69U C94A U109A C124A  -4.14
48. G69C A84C G128C  -4.09
49. A18G A43C U54A  -4.06
50. C89A C104A  -4.02
51. C8G C11A C72U C88U C97U G113U G127C  -4.01
52. U81G C86U G120U U133A  -4.01
53. A18C A24G  -3.95
54. G35C G61A A121U U126A  -3.79
55. G17A C88U U96C  -3.71
56. C12U A18G A41U G47C C72U U109G C124G  -3.69
57. G71U G110C  -3.69
58. U14A G47U  -3.55
59. C28U A46U A74U  -3.5
60. A27C C62U  -3.48
61. C34A A50G G93A  -3.46
62. G48U G69A C85G  -3.42
63. A27G C98U  -3.4
64. G10A G19A A74U  -3.32
65. U55C G113U  -3.3
66. C4U U14C G60A A75U  -3.07
67. G39U G60A G61A U87C C101U  -3.02
68. U9G U54C G69A C80U  -2.99
69. A27U C82U  -2.99
70. C20U G52C U78A C102U C124U  -2.94
71. C73G U112A G117U  -2.94
72. U59A G113U  -2.9
73. C13U G19C C70U  -2.89
74. C40A C89G  -2.81
75. C4A A6C A46C C49A C72G A84C A119U C123A U126G  -2.77
76. C15A A37C C49A C72G  -2.75
77. A2G A111C U112G G113U U116A C124A  -2.74
78. C11U A29C C72G U112A G135U  -2.74
79. G51A C53A G61A C73U  -2.68
80. C20A C79U C97U C124A G127C  -2.63
81. G71A G93C A95C  -2.61
82. A27U A50G U133A  -2.6
83. U7A C97A C101U U112C  -2.6
84. U54A U87A  -2.57
85. A16C C101U  -2.45
86. G36C C40A A74C G93C  -2.45
87. U7A G42A G60C  -2.37
88. A2U U54A  -2.36
89. C15A C64U  -2.36
90. A37U A74G A90C  -2.26
91. C72U U78C C86G G127C  -2.25
92. C8U G47U A90G G113C  -2.16
93. C12U A29U  -2.12
94. A6G G48A G71C G117A  -2.1
95. G45A G113U  -2.04
96. A5U C40U G42C  -2.03
97. G63C U116G  -2.02
98. G52U C56A  -1.92
99. A2G G52A C85U  -1.87
100. C49U C89G  -1.74
101. C3U U7G G42U  -1.73
102. C49A G110U  -1.73
103. G51U G60U C79G  -1.64
104. A46U U131G  -1.62
105. C28U U112A  -1.56
106. C11G C88A C102A  -1.55
107. U9A U38A U54A U96A U133G  -1.53
108. U7A U116G  -1.35
109. C13U C114G  -1.34
110. A29U G58A G71C U112A  -1.32
111. G36A G57U U129C  -1.31
112. U106A C115U G127U  -1.18
113. G71U C94G  -1.13
114. C8A C53A U92A A121U  -1.12
115. C12U C114A  -1.12
116. G39A G71A  -1.08
117. A46U U112G  -1.08
118. A50U G61A U106A  -1.03
119. C49U C73U A74U  -0.941
120. G47A A50U G61U  -0.935
121. C20U U54A  -0.906
122. A46G C86A G120C  -0.884
123. U87C C102U U112A G122A  -0.872
124. A41U C72U A83U U87G U92A  -0.865
125. C56U G57U  -0.86
126. C79U A95C  -0.848
127. C72U C82U  -0.823
128. A5G C13U A46U C56A  -0.813
129. C13U G42C  -0.781
130. C8G A26G G57U A119G U130G  -0.722
131. A5C G77A  -0.654
132. C3U U55G  -0.611
133. U54A U59A G60C U106A C124A G128U  -0.601
134. C89U U96C  -0.473
135. G44A U130C  -0.447
136. A16C U55G C123G  -0.307
137. A50U G120A  -0.296
138. A6U C56A  -0.282
139. C40G C62A C124A  -0.241
140. A6U A18U G60U U112C  -0.222
141. G58C C94A  -0.207
142. A2G C88U  -0.191
143. G45U C88A U130G  -0.102
144. C11G C64U A84U  -0.0856
145. A50G G77A  -0.057
146. U132A  -0.0436
147. C8G C73U A119U  0.0435
148. C53A U55G  0.151
149. U9C A37U  0.172
150. A91G G120U  0.174
151. A50G C82U  0.198
152. U7A  0.257
153. A121C G128U  0.545
154. C8A U112G  0.614
155. U9A C72U  0.716
156. C15U U78C C79G C124G U131A  0.897
157. G120C C123A  0.937
158. A121G U131G  1.36
159. A41G U112A  1.42
160. C56U C124U  1.6
161. C12A G122U C124A  1.6
162. C62U C124A  1.84
163. C13U C123G  2.04
164. C8A A74C G120U  2.1
165. C53U A121C  2.13
166. U7A C124A  2.16
167. C124G U131A  2.2
